Test results taken from patent publication US20210388087A1.

What was measured:
[1] = biological target: T1, Human CD3eg linker (human); assay: SPR Biacore T200, 25 C, Ab captured on anti-human Fc, antigen as analyte; details: remark: other sources report otherwise
T1 chain: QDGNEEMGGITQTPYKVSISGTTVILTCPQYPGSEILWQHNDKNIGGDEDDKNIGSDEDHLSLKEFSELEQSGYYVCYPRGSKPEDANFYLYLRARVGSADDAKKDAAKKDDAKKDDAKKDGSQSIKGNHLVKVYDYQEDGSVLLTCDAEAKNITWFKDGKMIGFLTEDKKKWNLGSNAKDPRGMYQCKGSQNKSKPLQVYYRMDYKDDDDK

[2] = biological target: CD3 epsilon homodimer protein (UniProt P07766); assay: SPR, antibody over immobilised CD3e homodimer
CD3 epsilon homodimer protein, sequence (P07766 23-126): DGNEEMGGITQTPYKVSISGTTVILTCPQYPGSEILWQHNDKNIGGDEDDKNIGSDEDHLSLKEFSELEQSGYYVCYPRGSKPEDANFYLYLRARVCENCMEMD

B1: H1647L0581 (antibody, V domains shown)
VH: QVQLVESGGGLVQPGRSLRLSCAASGFKFSNTWFHWVRQAPGKGLEWVAQIKDYYNDYAAYYAPSVKGRFTISRDDSKNSIYLQMNSLKTEDTAVYYCHYVHYASASTLLPAEGVDAWGQGTTVTVSS
VL: DIVMTQSPLSLPVTPGEPASISCQPSQEVVHMNRNTYLHWYQQKPGQAPRLLIYKVSNRFPGVPDRFSGSGSGTDFTLKISRVEAEDVGVYYCAQGTSHPFTFGQGTKLEIK
Kd [1]: 2280 nM
koff [1]: 0.101 s⁻¹
kon [1]: 44300 M⁻¹ s⁻¹

B2: CE115HA000/GLS3000 N28D (antibody, IgG1, name in Kabat numbering, V domains shown)
VH: QVQLVESGGGVVQPGRSLRLSCAASGFTFSNAWMHWVRQAPGKGLEWVAQIKAKSNNYATYYAESVKGRFTISRDDSKNSLYLQMNSLKTEDTAVYYCRYVHYGAYYGVDAWGQGTTVTVSS
VL: DIVMTQSPLSLPVTPGEPASISCRSSQSLVHSDRNTYLHWYQQKPGQAPRLLIYKVSNRFSGVPDRFSGSGSGTDFTLKISRVEAEDVGVYYCGQGTQVPYTFGQGTKLEIK
KD ratio to GLS3000 [2]: 4460

B3: CE115HA000/GLS3000 H34R (antibody, IgG1, name in Kabat numbering, V domains shown)
VH: QVQLVESGGGVVQPGRSLRLSCAASGFTFSNAWMHWVRQAPGKGLEWVAQIKAKSNNYATYYAESVKGRFTISRDDSKNSLYLQMNSLKTEDTAVYYCRYVHYGAYYGVDAWGQGTTVTVSS
VL: DIVMTQSPLSLPVTPGEPASISCRSSQSLVHSNRNTYLRWYQQKPGQAPRLLIYKVSNRFSGVPDRFSGSGSGTDFTLKISRVEAEDVGVYYCGQGTQVPYTFGQGTKLEIK
KD ratio to GLS3000 [2]: 85800

B4: CE115HA000/GLS3000 G91S (antibody, IgG1, name in Kabat numbering, V domains shown)
VH: QVQLVESGGGVVQPGRSLRLSCAASGFTFSNAWMHWVRQAPGKGLEWVAQIKAKSNNYATYYAESVKGRFTISRDDSKNSLYLQMNSLKTEDTAVYYCRYVHYGAYYGVDAWGQGTTVTVSS
VL: DIVMTQSPLSLPVTPGEPASISCRSSQSLVHSNRNTYLHWYQQKPGQAPRLLIYKVSNRFSGVPDRFSGSGSGTDFTLKISRVEAEDVGVYYCGQSTQVPYTFGQGTKLEIK
KD ratio to GLS3000 [2]: 72100
